# Laboratory results: patent US20060211610A1 (IPSEN PHARMA S A S, published 2006)
# Non-standard residues stand in square brackets, D forms with d. Ala(4-thiazolyl) = N[C@@H](Cc1cscn1)C(=O)O; 2Pal = N[C@@H](Cc1ccccn1)C(=O)O; 3Pal = N[C@@H](Cc1cccnc1)C(=O)O; 4Pal = N[C@@H](Cc1ccncc1)C(=O)O; d2Pal = N[C@H](Cc1ccccn1)C(=O)O; Ac6c = NC1(C(=O)O)CCCCC1; Ac5c = NC1(C(=O)O)CCCC1
# T1: Y1 receptor (human, UniProt P25929 1-384)
# T1 construct: whole, on cells; Assayed as membrane homogenates of SK-N-MC cells, not intact cells; also called NPY Y1
# T1 sequence (looked up): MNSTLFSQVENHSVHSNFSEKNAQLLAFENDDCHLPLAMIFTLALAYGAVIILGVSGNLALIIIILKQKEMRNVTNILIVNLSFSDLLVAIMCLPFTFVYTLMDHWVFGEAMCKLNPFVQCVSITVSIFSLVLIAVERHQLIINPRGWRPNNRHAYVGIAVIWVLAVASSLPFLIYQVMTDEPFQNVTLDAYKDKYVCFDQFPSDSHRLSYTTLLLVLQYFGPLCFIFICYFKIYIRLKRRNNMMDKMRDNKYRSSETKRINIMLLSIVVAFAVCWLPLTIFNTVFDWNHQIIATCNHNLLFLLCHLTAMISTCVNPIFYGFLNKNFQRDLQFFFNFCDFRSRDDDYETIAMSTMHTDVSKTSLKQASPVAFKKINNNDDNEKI
# T2: Y2 receptor (human, UniProt P49146 1-381)
# T2 construct: whole, on cells; Assayed as membrane homogenates of SK-N-BE2 cells, not intact cells
# T2 sequence (looked up): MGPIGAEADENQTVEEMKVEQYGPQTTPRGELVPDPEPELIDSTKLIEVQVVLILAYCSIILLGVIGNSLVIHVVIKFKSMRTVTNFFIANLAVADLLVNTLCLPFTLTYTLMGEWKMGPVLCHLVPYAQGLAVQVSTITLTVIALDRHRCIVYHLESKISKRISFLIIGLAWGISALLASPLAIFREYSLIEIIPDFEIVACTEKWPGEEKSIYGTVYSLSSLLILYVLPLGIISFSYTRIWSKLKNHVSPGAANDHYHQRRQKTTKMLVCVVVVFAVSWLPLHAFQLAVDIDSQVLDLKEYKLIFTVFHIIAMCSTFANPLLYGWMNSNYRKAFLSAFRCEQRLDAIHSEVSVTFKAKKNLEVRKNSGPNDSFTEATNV
# B1: Ac-[4Pal^26]hPYY(22-36)NH2 (peptide)
# peptide: Ac-ASLR[4Pal]YLNLVTRQRY-NH2
# SMILES: CC(=O)N[C@@H](C)C(=O)N[C@@H](CO)C(=O)N[C@@H](CC(C)C)C(=O)N[C@@H](CCCNC(=N)N)C(=O)N[C@@H](Cc1ccncc1)C(=O)N[C@@H](Cc1ccc(O)cc1)C(=O)N[C@@H](CC(C)C)C(=O)N[C@@H](CC(N)=O)C(=O)N[C@@H](CC(C)C)C(=O)N[C@H](C(=O)N[C@H](C(=O)N[C@@H](CCCNC(=N)N)C(=O)N[C@@H](CCC(N)=O)C(=O)N[C@@H](CCCNC(=N)N)C(=O)N[C@@H](Cc1ccc(O)cc1)C(N)=O)[C@@H](C)O)C(C)C
# notes: Synthetic analog of human PYY(22-36)
# B2: Ac-[3Pal^26]hPYY(22-36)NH2 (peptide)
# peptide: Ac-ASLR[3Pal]YLNLVTRQRY-NH2
# SMILES: CC(=O)N[C@@H](C)C(=O)N[C@@H](CO)C(=O)N[C@@H](CC(C)C)C(=O)N[C@@H](CCCNC(=N)N)C(=O)N[C@@H](Cc1cccnc1)C(=O)N[C@@H](Cc1ccc(O)cc1)C(=O)N[C@@H](CC(C)C)C(=O)N[C@@H](CC(N)=O)C(=O)N[C@@H](CC(C)C)C(=O)N[C@H](C(=O)N[C@H](C(=O)N[C@@H](CCCNC(=N)N)C(=O)N[C@@H](CCC(N)=O)C(=O)N[C@@H](CCCNC(=N)N)C(=O)N[C@@H](Cc1ccc(O)cc1)C(N)=O)[C@@H](C)O)C(C)C
# notes: as for B1
# B3: Ac-(3Pal^26, Leu^31)hPPY(24-36)NH2 (peptide)
# peptide: Ac-LR[3Pal]YLNLLTRQRY-NH2
# SMILES: CC(=O)N[C@@H](CC(C)C)C(=O)N[C@@H](CCCNC(=N)N)C(=O)N[C@@H](Cc1cccnc1)C(=O)N[C@@H](Cc1ccc(O)cc1)C(=O)N[C@@H](CC(C)C)C(=O)N[C@@H](CC(N)=O)C(=O)N[C@@H](CC(C)C)C(=O)N[C@@H](CC(C)C)C(=O)N[C@H](C(=O)N[C@@H](CCCNC(=N)N)C(=O)N[C@@H](CCC(N)=O)C(=O)N[C@@H](CCCNC(=N)N)C(=O)N[C@@H](Cc1ccc(O)cc1)C(N)=O)[C@@H](C)O
# notes: Also carries Leu at 31 (residue 8 of the peptide), already in the entry
# B4: Ac-(4Pal^26, Leu^31)hPPY(24-36)NH2 (peptide)
# peptide: Ac-LR[4Pal]YLNLLTRQRY-NH2
# SMILES: CC(=O)N[C@@H](CC(C)C)C(=O)N[C@@H](CCCNC(=N)N)C(=O)N[C@@H](Cc1ccncc1)C(=O)N[C@@H](Cc1ccc(O)cc1)C(=O)N[C@@H](CC(C)C)C(=O)N[C@@H](CC(N)=O)C(=O)N[C@@H](CC(C)C)C(=O)N[C@@H](CC(C)C)C(=O)N[C@H](C(=O)N[C@@H](CCCNC(=N)N)C(=O)N[C@@H](CCC(N)=O)C(=O)N[C@@H](CCCNC(=N)N)C(=O)N[C@@H](Cc1ccc(O)cc1)C(N)=O)[C@@H](C)O
# notes: as for B3
# B5: Ac-(2Pal^26, Leu^31)hPPY(24-36)NH2 (peptide)
# peptide: Ac-LR[2Pal]YLNLLTRQRY-NH2
# SMILES: CC(=O)N[C@@H](CC(C)C)C(=O)N[C@@H](CCCNC(=N)N)C(=O)N[C@@H](Cc1ccccn1)C(=O)N[C@@H](Cc1ccc(O)cc1)C(=O)N[C@@H](CC(C)C)C(=O)N[C@@H](CC(N)=O)C(=O)N[C@@H](CC(C)C)C(=O)N[C@@H](CC(C)C)C(=O)N[C@H](C(=O)N[C@@H](CCCNC(=N)N)C(=O)N[C@@H](CCC(N)=O)C(=O)N[C@@H](CCCNC(=N)N)C(=O)N[C@@H](Cc1ccc(O)cc1)C(N)=O)[C@@H](C)O
# notes: as for B3
# B6: Ac-(Taz^26, Leu^31)hPPY(24-36)NH2 (peptide)
# peptide: Ac-LR[Ala(4-thiazolyl)]YLNLLTRQRY-NH2
# SMILES: CC(=O)N[C@@H](CC(C)C)C(=O)N[C@@H](CCCNC(=N)N)C(=O)N[C@@H](Cc1cscn1)C(=O)N[C@@H](Cc1ccc(O)cc1)C(=O)N[C@@H](CC(C)C)C(=O)N[C@@H](CC(N)=O)C(=O)N[C@@H](CC(C)C)C(=O)N[C@@H](CC(C)C)C(=O)N[C@H](C(=O)N[C@@H](CCCNC(=N)N)C(=O)N[C@@H](CCC(N)=O)C(=O)N[C@@H](CCCNC(=N)N)C(=O)N[C@@H](Cc1ccc(O)cc1)C(N)=O)[C@@H](C)O
# notes: as for B3
# B7: Ac-[A6c^31]hPYY(22-36)NH2 (peptide)
# peptide: Ac-ASLRHYLNL[Ac6c]TRQRY-NH2
# SMILES: CC(=O)N[C@@H](C)C(=O)N[C@@H](CO)C(=O)N[C@@H](CC(C)C)C(=O)N[C@@H](CCCNC(=N)N)C(=O)N[C@@H](Cc1c[nH]cn1)C(=O)N[C@@H](Cc1ccc(O)cc1)C(=O)N[C@@H](CC(C)C)C(=O)N[C@@H](CC(N)=O)C(=O)N[C@@H](CC(C)C)C(=O)NC1(C(=O)N[C@H](C(=O)N[C@@H](CCCNC(=N)N)C(=O)N[C@@H](CCC(N)=O)C(=O)N[C@@H](CCCNC(=N)N)C(=O)N[C@@H](Cc2ccc(O)cc2)C(N)=O)[C@@H](C)O)CCCCC1
# notes: as for B1
# B8: Ac-[A6c^30]hPYY(22-36)NH2 (peptide)
# peptide: Ac-ASLRHYLN[Ac6c]VTRQRY-NH2
# SMILES: CC(=O)N[C@@H](C)C(=O)N[C@@H](CO)C(=O)N[C@@H](CC(C)C)C(=O)N[C@@H](CCCNC(=N)N)C(=O)N[C@@H](Cc1c[nH]cn1)C(=O)N[C@@H](Cc1ccc(O)cc1)C(=O)N[C@@H](CC(C)C)C(=O)N[C@@H](CC(N)=O)C(=O)NC1(C(=O)N[C@H](C(=O)N[C@H](C(=O)N[C@@H](CCCNC(=N)N)C(=O)N[C@@H](CCC(N)=O)C(=O)N[C@@H](CCCNC(=N)N)C(=O)N[C@@H](Cc2ccc(O)cc2)C(N)=O)[C@@H](C)O)C(C)C)CCCCC1
# notes: as for B1
# B9: Ac-[A6c^28]hPYY(22-36)NH2 (peptide)
# peptide: Ac-ASLRHY[Ac6c]NLVTRQRY-NH2
# SMILES: CC(=O)N[C@@H](C)C(=O)N[C@@H](CO)C(=O)N[C@@H](CC(C)C)C(=O)N[C@@H](CCCNC(=N)N)C(=O)N[C@@H](Cc1c[nH]cn1)C(=O)N[C@@H](Cc1ccc(O)cc1)C(=O)NC1(C(=O)N[C@@H](CC(N)=O)C(=O)N[C@@H](CC(C)C)C(=O)N[C@H](C(=O)N[C@H](C(=O)N[C@@H](CCCNC(=N)N)C(=O)N[C@@H](CCC(N)=O)C(=O)N[C@@H](CCCNC(=N)N)C(=O)N[C@@H](Cc2ccc(O)cc2)C(N)=O)[C@@H](C)O)C(C)C)CCCCC1
# notes: as for B1
# B10: Ac-[A5c^31]hPYY(22-36)NH2 (peptide)
# peptide: Ac-ASLRHYLNL[Ac5c]TRQRY-NH2
# SMILES: CC(=O)N[C@@H](C)C(=O)N[C@@H](CO)C(=O)N[C@@H](CC(C)C)C(=O)N[C@@H](CCCNC(=N)N)C(=O)N[C@@H](Cc1c[nH]cn1)C(=O)N[C@@H](Cc1ccc(O)cc1)C(=O)N[C@@H](CC(C)C)C(=O)N[C@@H](CC(N)=O)C(=O)N[C@@H](CC(C)C)C(=O)NC1(C(=O)N[C@H](C(=O)N[C@@H](CCCNC(=N)N)C(=O)N[C@@H](CCC(N)=O)C(=O)N[C@@H](CCCNC(=N)N)C(=O)N[C@@H](Cc2ccc(O)cc2)C(N)=O)[C@@H](C)O)CCCC1
# notes: as for B1
# B11: Ac-[D2Pal^26]hPYY(22-36)NH2 (peptide)
# peptide: Ac-ASLR[d2Pal]YLNLVTRQRY-NH2
# SMILES: CC(=O)N[C@@H](C)C(=O)N[C@@H](CO)C(=O)N[C@@H](CC(C)C)C(=O)N[C@@H](CCCNC(=N)N)C(=O)N[C@H](Cc1ccccn1)C(=O)N[C@@H](Cc1ccc(O)cc1)C(=O)N[C@@H](CC(C)C)C(=O)N[C@@H](CC(N)=O)C(=O)N[C@@H](CC(C)C)C(=O)N[C@H](C(=O)N[C@H](C(=O)N[C@@H](CCCNC(=N)N)C(=O)N[C@@H](CCC(N)=O)C(=O)N[C@@H](CCCNC(=N)N)C(=O)N[C@@H](Cc1ccc(O)cc1)C(N)=O)[C@@H](C)O)C(C)C
# notes: as for B1
# B12: Ac-[2Pal^26]hPYY(22-36)NH2 (peptide)
# peptide: Ac-ASLR[2Pal]YLNLVTRQRY-NH2
# SMILES: CC(=O)N[C@@H](C)C(=O)N[C@@H](CO)C(=O)N[C@@H](CC(C)C)C(=O)N[C@@H](CCCNC(=N)N)C(=O)N[C@@H](Cc1ccccn1)C(=O)N[C@@H](Cc1ccc(O)cc1)C(=O)N[C@@H](CC(C)C)C(=O)N[C@@H](CC(N)=O)C(=O)N[C@@H](CC(C)C)C(=O)N[C@H](C(=O)N[C@H](C(=O)N[C@@H](CCCNC(=N)N)C(=O)N[C@@H](CCC(N)=O)C(=O)N[C@@H](CCCNC(=N)N)C(=O)N[C@@H](Cc1ccc(O)cc1)C(N)=O)[C@@H](C)O)C(C)C
# notes: as for B1
# B13: Ac-[A6C^24, Leu^31]hPYY(24-36)NH2 (peptide)
# peptide: Ac-[Ac6c]RHYLNLLTRQRY-NH2
# SMILES: CC(=O)NC1(C(=O)N[C@@H](CCCNC(=N)N)C(=O)N[C@@H](Cc2c[nH]cn2)C(=O)N[C@@H](Cc2ccc(O)cc2)C(=O)N[C@@H](CC(C)C)C(=O)N[C@@H](CC(N)=O)C(=O)N[C@@H](CC(C)C)C(=O)N[C@@H](CC(C)C)C(=O)N[C@H](C(=O)N[C@@H](CCCNC(=N)N)C(=O)N[C@@H](CCC(N)=O)C(=O)N[C@@H](CCCNC(=N)N)C(=O)N[C@@H](Cc2ccc(O)cc2)C(N)=O)[C@@H](C)O)CCCCC1
# notes: as for B3
# Target: T1, Y1 receptor
# Assay: radioligand competition against [125I-Leu31,Pro34]PYY, SK-N-MC membranes, Cheng-Prusoff
# Method: (§1) The final pellets were resuspended in approximately 20 ml of 50 mM Tris-HCl containing 5.0 mM MgCl₂, 0.1 mg/ml bacitracin, and 0.1% BSA (Buffer B), and held on ice for the receptor binding assay.
# (§2) For assay, aliquots (0.4 ml) of the foregoing suspensions were incubated with 0.05 ml of 0.05 nM [¹²⁵I-Leu³¹, Pro³⁴]PYY (Y1 receptor) or [¹²⁵I]PYY(3-36) (Y2 receptor), (each ˜2200 Ci/mmol, New England Nuclear) in Buffer B, with or without 0.05 ml a solution (ranging from 0.01 nM -1000 nM) of an unlabeled competing peptide. After a 120 min incubation (25° C.), the bound radioligand was separated from the free by rapid filtration through GF/C filters, previously soaked in 0.3% polyethyleneimine. […] Inhibition constants (K₁,) were calculated using the well-known Cheng-Prusoff equation.
row,Binder,Ki [nM]
1,B1,< 2000
2,B2,< 2000
3,B3,< 2000
4,B4,< 2000
5,B5,< 2000
6,B6,< 2000
7,B7,< 2000
8,B8,< 2000
9,B9,< 2000
10,B10,< 2000
11,B11,< 2000
12,B12,< 2000
13,B13,< 2000

# Target: T2, Y2 receptor
# Assay: radioligand competition against [125I]PYY(3-36), SK-N-BE2 membranes, Cheng-Prusoff
# Method: as §1, §2
row,Binder,Ki [nM]
1,B1,< 1000
2,B2,< 1000
3,B3,< 1000
4,B4,< 1000
5,B5,< 1000
6,B6,< 1000
7,B7,< 1000
8,B8,< 1000
9,B9,< 1000
10,B10,< 1000
11,B11,< 1000
12,B12,< 1000
13,B13,< 1000
